System: MS2 coat protein
Test: apparent KD of MS2 coat protein; designed switch direction (-1 OFF switch, 1 ON switch): -1; higher = weaker reporter binding
Summary of the method: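 The buffer was Tris-HCl pH 7.5 with KCl, MgCl2, BSA, DTT, tRNA and Tween-20. In it, SNAP-549-labelled MS2 coat protein was titrated in doubling steps from 0.7 or 1.5 nM to 3 µM over chip-bound RNA switches transcribed by stalled E. coli RNA polymerase on Illumina chips. Apparent KD is the per-design median over clusters of curve fits to normalised fluorescence.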

[1] = input ligand: microRNA oligo, concentration not stated
[2] = Eterna round: R95, input ligand: microRNA oligo, concentration not stated
[3] = Eterna round: R95, input ligand: FMN 200 uM
[4] = Eterna round: R95, input ligand: none

Sequence | apparent KD of MS2 coat protein (input ligand: FMN 200 uM) | apparent KD of MS2 coat protein [1] | apparent KD of MS2 coat protein (input ligand: none) | apparent KD of MS2 coat protein [2] | apparent KD of MS2 coat protein [3] | apparent KD of MS2 coat protein [4]
ACAUGAGGAUCACCCAUGUGACCACAAUGGCUGAUGUAGAAACAGGAUAUUCGUGAAUAUCUAACGAAGAAGGGUUAUGACUGG [Deportation 64 - Jieux - Exclusion NG 3] (Eterna round: R96, puzzle: Exclusion NG 3) | 0.0629 µM | 0.0617 µM | 0.0721 µM |  |  | 
UGUGCGUAUGUGAGGAUAUGCUGGUCCUUGGAUCGGCAGAAGGCACAUGAGGAUCACCCAUGUGGUGUCGUUCA [salish99_Bmod_ex4_098] (puzzle: Brourd's mod of Exclusion 4) |  |  |  | 0.208 µM |  | 
AGAUCUGCAGGAUAUGGUUUUCGUGACAUGAGGAUCACCCAUGUCUUAUGUCCGCAUGUUUCAGAAGGGCAGGACG [Eternabot (L1) Solution 71] (Eterna round: R97, puzzle: Exclusion 5) | 0.0743 µM |  | 0.0278 µM |  |  | 
CAGUACUGAGGAUAUACAUGAGGAUCACCCAUGUGAUGUAGUGCACGCGUACGUGUACGUAGAAGGCAGUACUG [JL 3.27 m10] (Eterna round: R97, puzzle: Exclusion 3) | 0.0493 µM |  | 0.0171 µM |  |  | 
AGUAAUGUAUAAGGAUAUCUCGCAAAUAAAGGCAGAGAAGGUAUACCCACUUGAGGAUCACCCAAGUCUCGUGUGCCUGGUGGA [Mutated MS2 EX1.30] (Eterna round: R96, puzzle: Exclusion NG 1) | 0.023 µM | 0.0201 µM | 0.0251 µM |  |  | 
AAACGGCAAUAAGGAUAUGCUUACCUGGGUCGUCUUCAAACAUGAGGAUCACCCAUGUAGUCGACGCAGAAGGUAUUCAAAGCC [ExNG2 first] (Eterna round: R96, puzzle: Exclusion NG 2) | 0.0135 µM | 0.0104 µM | 0.0128 µM |  |  | 
UAUUAGCAAGAAAGAUCCCACAUGAGGAUCACCCAUGUGCUCGUCUUAUAAGGUACUGUGACGAAAGUCACGGUACC [Sensor 3, v1 - 89] (puzzle: Sensor v3, turn-off variant 1) |  |  |  | 0.101 µM | 0.0253 µM | 0.0264 µM
AAAUACAAGUAAAGAUCCUACAUGAGGAUCACCCAUGUGUUCGUCUUAUAAAGUACUAUCACGAAAGUGAUAGUACA [Sensor 3, v1 - 24] (puzzle: Sensor v3, turn-off variant 1) |  |  |  | 0.131 µM | 0.089 µM | 0.131 µM
GUGAAACAUGAGGAUCACCCAUGUGAGGAUAUGUUUAAGUAAUGAUGAAAGUAUAUAUACAGAAGGCACAAUGG [Mat - Mod of JL D72] (puzzle: Exclusion 1) |  |  |  | 0.0715 µM | 0.142 µM | 0.0644 µM
AACAAGCAAGGAUAUACCGGAGGUGUGUCCUCACCUAAGGGACUUGAGGAUCACCCAAGUAGAAGGUGCAACAA [Raxela] (Eterna round: R97, puzzle: Exclusion 2) | 0.0415 µM |  | 0.141 µM |  |  | 
UUGACGGCAGGAUAUACAUGAGGAUCACCCAUGUAAAUUUUUCGUUUAACUUGAAUGUGUAGAAGGGCCAUGUU [Ex3 #72] (Eterna round: R97, puzzle: Exclusion 3) | 0.0182 µM |  | 0.019 µM |  |  | 
UUUACAAGCUAAUGAUCCCACAUGAGGAUCACCCAUGUUGCUGCCGUGAGGUAGCUUUUAACAUUUGCUCGUCUUAU [JL TOV1 3.40] (Eterna round: R97, puzzle: Sensor, turn-off variant 1) | 0.733 µM |  | 1.06 µM |  |  | 
GCGCACCUACCAAAAGGUAGGCUAACAUGAGGAUCACCCAUGUAGGAUAUCGAUUGCUUUGCAGUCGAGAAGGACGUGAUGCGC [JL ENG3 3.80 Mod 19] (Eterna round: R96, puzzle: Exclusion NG 3) | 0.0259 µM | 0.0173 µM | 0.0233 µM |  |  | 
UACAAUAAGGAGGAUAUCGUAUCGGAAACGAUACGAGAAGGCUUAACAUGAGGAUCACCCAUGUUCUUCAAUAU [Mat - Exclusion 6 - Eli Mod - D97] (puzzle: Exclusion 6) |  |  |  | 0.0152 µM | 0.0187 µM | 0.0156 µM
UAAAAUAGUGUGAGGAUAUGCUGGUCCUUGGAUCAGCAGAAGGCACAUGAGGAUCACCCAUGUAAAUAAUAAUA [Mat - Exclusion 4 - JL Mod - D27] (puzzle: Brourd's mod of Exclusion 4) |  |  |  | 0.0546 µM | 0.184 µM | 0.0671 µM
UAUUAGCAAGCAAAUGGGUACAUGAGGAUCACCCAUGUGCUCGUCUUAUAAGGUACUGUGCCGAAAGUCACGGUACC [mod--Eli2] (Eterna round: R97, puzzle: Sensor, turn-off variant 1) | 0.023 µM |  | 0.0234 µM |  |  | 
UUUUGGCAUGUAGGAUAUGGGUCCGAUUAGGAUUUAGAAGGACAUGAGGAUCACCCAUGUGCCCUUAAUUGGUCUUUUUUUUUU [EXclNG1-LROPPY17] (Eterna round: R96, puzzle: Exclusion NG 1) | 0.0558 µM | 0.0353 µM | 0.0444 µM |  |  | 
UUUUAACAUGAGGAUCACCCAUGUGAGGAUAUCGAAAUUUAUAUUAAUAUUUUUAUUACGAGAAGGCACAUUUU [JMF 74] (puzzle: Exclusion 1) |  |  |  | 0.0705 µM |  | 
GGGAUGUCAGGAUAUCCGAAUAAUAACAACAAUAACAGAAAGGAGAAGGGACAUGAGGAUCACCCAUGUAAAAG [Bemadiin] (puzzle: Exclusion 4) |  |  |  | 0.0375 µM | 0.0399 µM | 0.04 µM
GAAAAGGUAGGAUAUACGAAAAAAAAGGGUAGAAAAUAAACACAUGAGGAUCACCCAUGUAGAAGGACCAAAAG [salish99_ex2_r3_075] (puzzle: Exclusion 2) |  |  |  | 0.0253 µM | 0.092 µM | 0.0257 µM
CAGUACUGAGGAUAUACAUGAGGAUCACCCAUGUUCUUCAGCUAGGAUACUAGCAAAGGUAGAAGGCAGUACUG [Mat - Exclusion 3 - Eli Mod - D28] (Eterna round: R97, puzzle: Exclusion 3) | 0.611 µM |  | 0.0301 µM |  |  | 
ACAGGUUUCAUAGGAUAUCUCUGACUAUGGCACUCCUUGUGUCCACAUGAGGAUCACCCAUGUCGAGAGAAGGGUGCACCUGCG [Arenena] (Eterna round: R96, puzzle: Exclusion NG 2) | 0.147 µM | 0.0649 µM | 0.0657 µM |  |  | 
GUGUAGUCAGGAUAUACAUGAGGAUCACCCAUGUGAAUAAGAUAGAAUAAGAUAAAGUGUAGAAGGGAUAGUGU [Excluse me!!! 22 - Jieux - Exclusion 3] (puzzle: Exclusion 3) |  |  |  | 0.0307 µM |  | 
UCGUGGUUACUCUGCAGUUUCCUGAGCGGAGGCUCUUUGACAUGAGGAUCACCCAUGUUGCUUUUUGCUCAUCUUAA [JR_SV3TOV2_Sub041] (puzzle: Sensor v3, turn-off variant 2) |  |  |  | 0.0158 µM | 0.0142 µM | 0.0124 µM
GAGUGACAUGAGGAUCACCCAUGUGAGGAUAUCGGACGGACCAAAUUAACAAUAUUUGCGAGAAGGCACAUCGG [Exclusion 1 V17] (puzzle: Exclusion 1) |  |  |  | 0.0822 µM |  | 
